Test results reported in paper PMC7617869 (Nature Structural & Molecular Biology, 2025).

Assays:
Details in all cases: both partners purified
[1] = target: T1, His-tagged BRISC (wild type) (human, UniProt P46736 1-316; Q15018 1-415; Q9NXR7 1-383; Q9NWV8 1-329); assay: other fluorescence titration; spectral shift (Dianthus); 12.5 nM RED-Tris-NTA-labelled His–BRISC, SHMT2(A285T) 46 μM to 1.4 nM; 25 mM HEPES pH 7.5, 150 mM NaCl, 1 mM DTT, 0.005% Tween-20; 25 °C; no compound
[2] = target: T1, His-tagged BRISC (wild type); assay: other fluorescence titration; spectral shift (Dianthus); labelled His–BRISC first incubated with 100 μM FX-171-C (1% DMSO) 15 min, then with SHMT2(A285T) 30 min at 25 °C
[3] = target: T1, His-tagged BRISC (wild type); assay: other fluorescence titration; spectral shift (Dianthus); labelled His–BRISC first incubated with 100 μM JMS-175-2 (1% DMSO) 15 min, then with SHMT2(A285T) 30 min at 25 °C

Kd [1]: 400 ± 100 nM | KD after incubation of BRISC with FX-171-C [2]: 3600 ± 1800 nM | KD after incubation of BRISC with JMS-175-2 [3]: 700 ± 300 nM
B1: SHMT2ΔN(A285T) (residues 18–504) (enzyme)
chain: QLVRMAIRAQHSNAAQTQTGEANRGWTGQESLSDSDPEMWELLQREKDRQCRGLELIASENFCSRAALEALGSCLNNKYSEGYPGKRYYGGAEVVDEIELLCQRRALEAFDLDPAQWGVNVQPYSGSPANLAVYTALLQPHDRIMGLDLPDGGHLTHGYMSDVKRISATSIFFESMPYKLNPKTGLIDYNQLALTARLFRPRLIIAGTSAYARLIDYARMREVCDEVKAHLLADMAHISGLVAAKVIPSPFKHADIVTTTTHKTLRGTRSGLIFYRKGVKAVDPKTGREIPYTFEDRINFAVFPSLQGGPHNHAIAAVAVALKQACTPMFREYSLQVLKNARAMADALLERGYSLVSGGTDNHLVLVDLRPKGLDGARAERVLELVSITANKNTCPGDRSAITPGGLRLGAPALTSRQFREDDFRRVVDFIDEGVNIGLEVKSKTAKLQDFKSFLLKDSETSQRLANLRQRVEQFARAFPMPGFDEH
notes: serine hydroxymethyltransferase 2 (SHMT2), residues 18-504; also called SHMT2(A285T); serine hydroxymethyltransferase 2
